From the supplement of paper PMC10567573

B1: AUP1 (parent)
chain: FCASTRLPPTPLLLFPEEEATNGR

Variants of: B1
Test: protein stability index of a GFP-peptide fusion (GPS, HEK-293T) (PSI 1-6); higher = more stable
Conditions: c terminus: a fixed tail appended
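Further: lentivirally expressed fusions sorted by FACS into six bins by GFP to DsRed ratio, PSI derived from sequencing read proportions per bin multiplied by bin number.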

Protein stability index of substitutions, site by site:
T10: L 2.23, E 3.23, Y 1.99
P8: R 2.67, T 2.94, G 2.66, N 2.66, F 2.43, M 2.57, Q 3.19, I 2.3, W 2.27, V 2.41
G23: F 2, D 3.33, T 2.76, M 2.54, A 2.86, S 2.94, V 2.91, W 1.69
E17: W 1.7, S 1.8, K 2.25, I 1.93, M 2.51, R 1.96, D 2.7, Y 2.47, T 1.62
F15: K 3.11, W 2.68, C 2.61, N 3.44, Y 2.61, M 3.12, E 3.46
P9: S 2.82, D 2.74, C 2, R 2.3, V 2.62, K 2.67, E 2.89, W 2.97, N 2.84, A 2.59
P11: E 3.4, G 2.54, T 2.74, D 2.99, M 2.6, Y 1.91, R 2.06, C 2.57
A3: Y 1.7, C 2.78, K 2.5, M 2.88, N 2.62, P 2.25, H 2.49
R6: W 2.12, Q 3.49, C 2.7, G 2.7, Y 2.33, V 3.42
A20: M 2.88, L 2.72, C 2.38, H 2.81, S 3.21, Q 2.96, D 3.12
F1: D 4.35, L 3.9, M 4.27, T 4.6, S 4.3, K 4.17, R 4.24, N 4.16, I 4.27, Y 3, A 4.17
R24: N 3.01, W 1.34, V 2.85, P 3, L 2.09, S 3.01, T 3.24
L12: R 3.12, W 2.77, M 3.25, E 4.1, G 2.87, Y 1.97, S 3.47
E19: T 2.68, N 2.62, R 2.05
L14: G 2.66, Y 2.59, F 2.14, H 3.49, T 3.41, A 3.58, I 3
L7: V 3.31, K 2.89
N22: Q 3.18, D 3.1, I 2.11, C 2.32, K 2.75, A 2.87, E 3.39, S 2.5
L13: A 3.43, V 3.25, T 3.56, C 3.01, I 2.77
T21: N 3.15, R 2.8, E 3.68, K 3.09, Q 2.46, H 2.69, L 2.37
P16: C 2.08, A 2.68, Y 2.03, W 2.48, T 1.74, M 2.15
E18: D 2.52, S 2.12, V 2.21, T 2.2, I 2.4
T5: V 2.83, R 1.99, Q 2.86, H 2.66, N 3.05, Y 2.27, W 2.49, E 3.77, M 2.96
C2: W 2.76, S 3.8, T 3.42, K 4.06, V 1.55, I 2.62, F 3.1, N 3.82, M 3.73, P 3.92
S4: C 2.54, H 3.05, R 3.03, K 3.01, A 2.8
